Data on 38 variants can be found in the RNAGym collection of RNA variant scans (doi:10.7554/elife.80360).

Sequences and labels used below:
B1: Hairpin Ribozyme (parent)
chain: GUCCUCUUUCACGUGCGCGUGAAAGAGAGAAGUGAACCAGAGAAACACACGUUGUGGUAUAUUACCUGGUA

In this data set the parent is B1. The experiment in a line: self-cleavage, relative activity (ratio to wild type); higher = more cleavage; co-transcriptional.
For GUCCUCUUUCCCGUGCGCGUGAAAGAGAGAAGUGAACCAGAGAAACACACGUCGUGGUAUAUUACCUGGUA [A11C U53C], the self-cleavage was 0.681. Regarding GUCCUCUUUCACGUGCGCGUGAAAGGGAGAAGUGAACCAGAGAAACACACGUUGUGGUAUAAUACCUGGUA [A26G U62A], the self-cleavage came to 0.228. The result for GUCCUCUUUCACGUGCGCGUGAAAGAGAGAAGUGUACCAGAGAAACACACGUUGUGGUAUAUUACCAGGUA [A35U U67A] reads 0.126; that for GUCCUCUUUCACGUGCGCGUGAAAGAGAGAAGUGAUCCAGAGAAACACACGUUGUGGUAUUUUACCUGGUA [A36U A61U], 0.213; that for GUCCUCUUUCACGUGCGCGAGAAAGAGACAAGUGAACCAGAGAAACACACGUUGUGGUAUAUUACCUGGUA [U20A G29C], 0.203. Consider GUCCUCUUUCACGUGCGCGUGAAAGAGAGAAGUGAACCAGAGAAACACACCUUGUGGUAUAUUAACUGGUA [G51C C65A], for which the self-cleavage worked out at 0.857. As for GUCCUCUUUCACGUGCGCAUGAAAGAGAGAAGUGAACCUGAGAAACACACGUUGUGGUAUAUUACCUGGUA [G19A A39U], the figure is 0.404; as for GUCCUCUUUCACGUGCGCGUGAAAGAGAGAAGUGAACCAGAGAAACACACGUGGUGGUAUAUUACCGGGUA [U53G U67G], 0.119. In the case of GUCCUCUUUCACGUGCGCGUGAGAGAGUGAAGUGAACCAGAGAAACACACGUUGUGGUAUAUUACCUGGUA [A23G A28U], the self-cleavage was 0.417. Regarding GUCCUCUUUCACGUGGGCGUGAAAGAGAGAAGUGCACCAGAGAAACACACGUUGUGGUAUAUUACCUGGUA [C16G A35C], the self-cleavage turned out to be 0.659. Regarding GUCCUCUUUCACGUGCGCGUGAAAUAGAGAAGUGAACCGGAGAAACACACGUUGUGGUAUAUUACCUGGUA [G25U A39G], the self-cleavage amounted to 0.191. The result for UUCCUCUUUCACGUGCGCGUGAAAGAGAGAAGUGAACAAGAGAAACACACGUUGUGGUAUAUUACCUGGUA [G1U C38A] reads 0.154; that for GUCCUCUUUCACGUGCGCGGGAAAGAGAGAAGUGAACCACAGAAACACACGUUGUGGUAUAUUACCUGGUA [U20G G40C], 0.188; that for GUCCUCUUUCACGUGCGCGUGAAAGAGAGAAGUGAACCAAAGAAACACACGUUGUGGUAUAUUACCUCGUA [G40A G68C], 0.223.

On to GUCCACUUUCACGUGCGCGUGAAAGAGAGAAGUGAAGCAGAGAAACACACGUUGUGGUAUAUUACCUGGUA [U5A C37G], for which the self-cleavage turned out to be 0.18. As for UUCCUCUUUCACGUGCGCGUGACAGAGAGAAGUGAACCAGAGAAACACACGUUGUGGUAUAUUACCUGGUA [G1U A23C], the figure is 0.0726. The result for GCCCUCUUUCACGUGCGCGUGAAAGAGAGAAGUGUACCAGAGAAACACACGUUGUGGUAUAUUACCUGGUA [U2C A35U] reads 0.259; that for GUCCUCUUUCACGUGCGCGUGACAGAGAGAAGUGAACCAGAGAAACACACGUUGUGGUAUAUUACCUAGUA [A23C G68A], 0.26; that for GUCGACUUUCACGUGCGCGUGAAAGAGAGAAGUGAACCAGAGAAACACACGUUGUGGUAUAUUACCUGGUA [C4G U5A], 0.203. As for GUCCUCUUUCACGUGCGCGUGAAUGAGAGAAGUGAACCAGAGAAACACACGUUGUGGAAUAUUACCUGGUA [A24U U58A], the figure is 0.724; as for GUCCUCUUUCACGUGCGCGUGAAAGAGAGAAGAGAACCAGAGGAACACACGUUGUGGUAUAUUACCUGGUA [U33A A43G], 0.169; as for GUCCUCUUUCACGUGCGCGUGAAAGAGAGAAGUGAACCAGAGAAACACACGUUGUGGUAUAUUUCCUGAUA [A64U G69A], 0.115. Turning to GUCCUCUUUCACGUGCGCGUGAAAGAGAGAAGUGAACCAGAGAAACACCCGUUGUGGUAUAUUACCUGGGA [A49C U70G], the self-cleavage amounted to 0.0833. With GUCCUCUUCCACGUGCGCGUGAAAGAGAGAAGUGAACCAGAGAAACACACGUUGUGGUAUAUUACUUGGUA [U9C C66U], the self-cleavage was 0.513.

Take GUCCUCUUUCACGUGCGCGUGAAAGAGAGAAGUGAACCAGAGAAACACACGUUGUGCUGUAUUACCUGGUA [G57C A59G]: the self-cleavage was found to be 0.244. Take GUCCUCUUUCACGUACGCGUGAAAGAGAGAAGUGAACCAGAGAAACACACGUUGUGGUAUAUGACCUGGUA [G15A U63G]: the self-cleavage turned out to be 0.0686. Consider GUCCUCUUUCACGUGCGCGUGAAAGAGAGAAGUGAACCAGAGAAACGCAAGUUGUGGUAUAUUACCUGGUA [A47G C50A], for which the self-cleavage was found to be 0.172. The result for GUCCGCUUUCACGUGCGCGUGAAAGAGAGAAGUGAACCAUAGAAACACACGUUGUGGUAUAUUACCUGGUA [U5G G40U] reads 0.13. As to GUCCUCUUUCACGUGCGCGUGAAAGAGAGAAGUGAACCAGAGAAACACACGUUGUGGUAUAAUAUCUGGUA [U62A C65U], the self-cleavage worked out at 0.204. For the variant AUCCUCUUUCACGUGCGCGUGAAAGAGAGAAGUGAACCAGAGAAACACACGUGGUGGUAUAUUACCUGGUA [G1A U53G], the self-cleavage came to 0.0863. For GUCCUCUUUCAAGUGCGCGUGAAAGAGAGAAGUGAAGCAGAGAAACACACGUUGUGGUAUAUUACCUGGUA [C12A C37G], the self-cleavage was found to be 0.259. Take GUCCUCUUUCACGUGCGCGUGAAAGAGAGAAGUGAACCAGAGAAACACACGUUGUGGUAUAUUACGUGUUA [C66G G69U]: the self-cleavage was found to be 0.0961. Consider GUCCUCUUUCAUGUGCGCUUGAAAGAGAGAAGUGAACCAGAGAAACACACGUUGUGGUAUAUUACCUGGUA [C12U G19U], for which the self-cleavage was 0.954. As for GUCCUCUUUCACGUGCGCGUCAAAGAGAGAAGUGAACCAGAGAAACACACGUUGUGGUAUAUUACCGGGUA [G21C U67G], the figure is 0.246; as for GUCCUCUUUCACGUGCUCGUGAAAGAGAGAAGUGAACCAGAGAAACACACGUUGUGGUAAAUUACCUGGUA [G17U U60A], 0.738; as for GUCCGCUUUCACGUGCGCGUGAAAGAGAGAAGUGAACCAGAGAUACACACGUUGUGGUAUAUUACCUGGUA [U5G A44U], 0.093. As for GUCCUCUUUCAUGUGCGCGUGAAAGAGAGAAGUGAACGAGAGAAACACACGUUGUGGUAUAUUACCUGGUA [C12U C38G], the figure is 0.235; as for GUCCUCUUUCACGUGCGCGUGAAAGAGAGAAGUGGACCAGAGAAACACACGUUGUGGUAUAUUACCUCGUA [A35G G68C], 0.236.
